Experimental findings from US20020131964A1 are described below.

The target of experiment [1] is two chain urokinase (tcuPA) (Homo sapiens (Human)) (UniProt P00749). In words: cell-based or functional assay.
In experiment [2] the target is wild type single chain urokinase (scuPA) (Homo sapiens (Human)) (UniProt P00749). Nature of the experiment: cell-based or functional assay.

As to “soluble recombinant human urokinase receptor (suPAR) (from UniProt Q03405 23-299)”, the EC50 of phenylepherine (PE)-induced contraction of rat aortic rings in experiment [1] and in experiment [2] was 29 nM throughout.
